Assay: yeast display, Sf9 membrane polyspecificity reagent, FACS + sequencing; frameworks hold sequencing errors
Procedure, shortened: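 Nanobodies came from a synthetic yeast display library in Saccharomyces cerevisiae BJ5465, induced with galactose for 36–48 hours and stained for 1 hour at 4 °C with 10% biotinylated, detergent-solubilized Sf9 membrane reagent. Cells were enriched on streptavidin microbeads and then FACS-sorted, with low and high (top ~1%) gates set on anti-HA fluorescence for expression and streptavidin fluorescence for reagent binding. Each polyreactivity label reflects the gate a clone came from. Genes were amplified by colony PCR, sequenced by MiSeq 2 × 250 and filtered by CDR length.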

| Sequence | polyreactivity (PSR sort gate) |
| --- | --- |
| QVQLVESGGGLVHAGGSLRLSCAASGRILGKYANGWYRQAPGKERELVAAINWRGGRTYADSVKGRFTISRDNSKNNVYLQMNSLKPEDTAVYYCAAVWQSPRPGYGYWGQGTQVTVSS | high polyreactivity |
| QVQLVESGGGLVHAGGSLRLSCAASGRISSSYAMGWYRQAPGKERELVAAITSRGGSTYYADSVKGRFTISRDNAKNTVYLQMNSLKPEDTAVYYCAKYQYYRSTDDYWGQGTQVTVSS | low polyreactivity |
| QVQLVESGGGLVHAGGSLRLSCAASGRTFAQNAMRRYRQAPWKERELVAAIRNGGRTNYADSVKGLFTISRDNAKNTVYLQMNSLKPEDTAVYYCAVKFNNRAKYGYWGQGTQVTVSS | high polyreactivity |
| QVQLVESGGGLVHAGGSLRLSCAASGRTFAYNAMGWYRQAPGKERELVAAITRSTGNTYYADSVKGRFTISRDNAKNTVYLQMNSLKPEDTAVYYCAAAYAYWRKYDYWGQGTQVTVSS | high polyreactivity |
| QVQLVESGGGLVHAGGSLRLSCAASGRTFIAYAMGWYRQAPGKERELVADISLRGGSTYYADSVKGRFTISRDNAKNTVYLQMNSLKPEDTAVYYCNTRRLHGWLYGYEYWGQGTQVTVSS | low polyreactivity |
| QVQLVESGGGLVHAGGSLRLSCAASGRTFSAYAMGWYRQAPGKERELVAAISRSGGRTYYADSVKGRFTISRDNAKNTVYLQMNSLKPEDTAVYYCNALNLPDNQGTYDYWGQGTQVTVSS | high polyreactivity |
| QVQLVESGGGLVHAGGSLRLSCAASGRTFVLYVMGWYRQAPGKETEFVADINAGGGSTYYADSVKGRFTISRDNAKNTVYLQMNSLKPEDTAVYYCAATRVLGQLFRFGYWGQGTQVSVSS | low polyreactivity |
| QVQLVESGGGLVHAGGSLRLSCAASGRTFWSYAMGWYRQAPGKERELVAAIRTSDGITYYADSVKGRFTISRDNAKNTVYLQMNSLKPEDTAVYYCAAENWYKYDYWGQGTQVTVSS | low polyreactivity |
| QVQLVESGGGLVHAGGSLRLSCAASGRTFWTYAMGWYRQAPGKERELVAAISSGGSTYYADSVKGRFTISRDNAKNTVYLQMNSLKPEDTAVYYCATRVYGGYGYWGQGTQVTVSS | high polyreactivity |
| QVQLVESGGGLVHAGGSLRLSCAASGRTFYANAMGWYRQAPGKERELVAAISSRSGTTHYADSEKGRFTISRDNAKNSVYLQMNSLKPEETAVYYCAVRYYRRRYDYWGQGTQVTVSS | low polyreactivity |
| QVQLVESGGGLVHAGGSLRLSCAASGRTFYRYGMGWYREARGKERELVAAISNRGGTTYYADSLKGRFTISRDNAKNTVYLQMNSLKPEDTAVYYCAADSVYAEYDSWGQGTQVTVSS | low polyreactivity |
| QVQLVESGGGLVHAGGSLRLSCAASGSIFEGYAMGWSRQAPGKERELVAAISRSGGSTYYADSVKGRFTISRDNAKNSVYLQINRLTPEATAVYYCAARKAIDYQGRHDHWGQGTQVTVSS | low polyreactivity |
| QVQLVESGGGLVHAGGSLRLSCAASGSIFGFYTMGWYRQAPGKERELVAAITWSGGRTYYADSVKGRFTISRDNAKNTVYLQMNSLKPEDTAVYYCNRDGRSRWYYASAGYNYWGQGTQVTVSS | high polyreactivity |
| QVQLVESGGGLVHAGGSLRLSCAASGSIFRRNAMGMSRQAPGKERELVASITSGASTYYADSVKGRFTISRDNAKNTVYIQMNSLKPEDTAVYYCAADIFVTAFASPMDYWGQGTQVTVSS | low polyreactivity |
| QVQLVESGGGLVHAGGSLRLSCAASGSIFVVYTMGWYIQAPGKERELVADISASGGRTYYADSVKGRFTISSDNAKNTVYLKMNRLKPEDTAVYYCARVWYSSYSSESYSDHDYWGQGTQGTVSS | high polyreactivity |
| QVQLVESGGGLVHAGGSLRLSCAASGSIFYPYAMGWYRKAPGKERELVAAISRSGGRTYYADSVKGRFTISRDNAKNTVYLQMNSLKPEDTAVYYCNAYYPGNGPRSTSTRYEYWGQGTQVTVSS | high polyreactivity |
| QVQLVESGGGLVHAGGSLRLSCAASGSILNGYVMGWYRQAPGKERELVGTYYADSVKGRFTISRDNAKNTVYLQMNSLKPEDTAVYYCAADIGDGSEFDYWGLGTQVTVSS | low polyreactivity |
| QVQLVESGGGLVHAGGSLRLSCAASGSILSSYAMGWYRQAPGKERELVAAINSGGSTNYADSVKGRFTISRDNAKNTVYLQMNSLKAEDTAVYYCNADYSYGTTLDYWGQGTHVTVSS | low polyreactivity |
| QVQLVESGGGLVHAGGSLRLSCAASGSIYPSYGMGWYRQAPGKERELVARITSGGGTNYADSVKGRFTISRDNAKNTVYLQMNSLKPEDTAVYYCAAQSTTIEDGWYVEYNYWGQGTQVTVSS | high polyreactivity |
| QVQLVESGGGLVHAGGSLRLSCAASGSIYPYYAMGWYRQAPGKERELVAVISRGGVRTYYADSVKGRFTISRDNAKNTVYLQMNSLKTEDTAVYYCAAGYPYGVDYWGQGTQVTVSS | high polyreactivity |
| QVQLVESGGGLVHAGGSLRLSCAASGSTFARYAMGWYRPAPGKERELVAVIRSGGSTNYADSVKGRFTISRDNAKNTVYLQMNSLKPEDTAGAADQWTIHRWATYGYWGQGTQVTVSS | low polyreactivity |
| QVQLVESGGGLVHAGGSLRLSCAASGSTFDVYVMGWYRQAPGKEREMVAAISSGDDTNYADSVKGRFTISRDNAKNTVYLQMNSLKPEDTEVYYCNADYFDYSRPRYDYWGQGTQVTVSS | low polyreactivity |

| Sequence | polyreactivity (PSR sort gate) |
| --- | --- |
| QVQLVESGGGLVHAGGSLRLSCAASGSTFGINAMGWYRQAPGKERELVAAITRGGSTKYADSVKGRFTISRDNAKKTVYLQMNSLKPEDTAVYYCNKRPWHRSSRPFYYWGQGTQVTVSS | high polyreactivity |
| QVQLVESGGGLVHAGGSLRLSCAASGSTFKGYAMGWYRQAPGKERELVASIRSSSGSTYYADSVKGRFTISRDNAKNTVYLQMNSLKPEDTAVYYCATALWVRYYGQGGYIRRYDYWGQGTHVTVSS | high polyreactivity |
| QVQLVESGGGLVHAGGSLRLSCAASGSTFLPNAMVWYRQSHGKERELVAAISYRGGGTFYADSVKGRFTISRDNAKNTVYLQMNSLKPEDTAVYYCAADWSWFDNFDYWGQGTQVTVSS | low polyreactivity |
| QVQLVESGGGLVHAGGSLRLSCAASGSTFYYNAMGWYRQAPGKERELVAAITKSGDDTYYADSEKGRFTISRDNATNTVYLQMNSLKPEDTAVSYCAAYLSWYDYWGQGTQVTVSS | low polyreactivity |
| QVQLVESGGGLVHAGGSLRLSCAASGSTFYYYAMGWYRQAPGKERELVAAIRGDSTYYADSVKGRFTISRDNAKYTVYLQMYSLKTEDTAFYYCAADWYDTGFWWTYPYDYWGQGTQVTVSS | low polyreactivity |
| QVQLVESGGGLVHAGGSLRLSCAASGSTVSYYAMGWYRQAPGKERELVAAISTRGSSTYYADSVKGRFTISRDNAKNTVYFQMNSLKPEDTAVYYCAVDQYKYDWFYDYYGYTYGYWGQGTQVTVSS | high polyreactivity |
| QVQLVESGGGLVHAGGSLRLSCAASGYTFRYYAKGWYRQAPGKERELVAAINSGDITNYADSVKGRFTITRDNAKTTVYLQMNSLKPEDTAVYFCARSTFSLYDYWGQGTQVTVSS | low polyreactivity |
| QVQLVESGGGLVHAGGSLRLSCAASGYTFTYYVMGWYRQAPGKEREFVAGIRNGGGRMYYADSVKGRFTISRDNAKNTVYFQMNSLKPEDTAVYYCNAGYGTYYSGVYWRGEMDYWGQGTQVTVSS | high polyreactivity |
| QVQLVESGGGLVHAGGSLRLSCAASRRNFTRNAMGWYRQAPGKERELVAAIRRGGRTNYADSVKGRFTISRDNAKNTVYLQMNSLKPEETAVYYCNKAGWLKWAPRQYYYWGQGTQVTVSS | high polyreactivity |
| QVQLVESGGGLVHAGGSLRLSCYATGIILDRYTMGWYRQAPATERELVAAISRSGGITYYADSVKGRFTISRDNAKNTVYLQMNSLKQEDTAVYYCAAKYFDHRQTAYEYWGQGTHVTVSS | high polyreactivity |
| QVQLVESGGGLVHAGGSLRLSFAASGRTFTLNAMGWYRQAPGKEREFVAAISNSGVRTYYADSVKGRFTISRDNAKNTVYLQMNSLTPEDTAVYYCDGTYQVGDSIDDYWGQGTQVTVSS | low polyreactivity |
| QVQLVESGGGLVHAGGSLRVSCAASGSISDSYAMGWYREAPGKERELVAAITSGDSTYYADSVKGRFTISLDNAKNTVYLQMNSVKPEDTAVYYSAKRVSRVRGYGFTDWSEYDYWGQGTQVTVSS | low polyreactivity |
| QVQLVESGGGLVHAGGSLSLSCAASGRTFTSNAMGWYRQAPGKERELVATINGGVSTYYADSVKGRFTISRDNAKNTVYLQMNSLKPEDTAVYYCARDAYDADPSLWYYTYDYWGQGTQVTVSS | low polyreactivity |
| QVQLVESGGGLVHAGGSLSLSCAASGSTLRAYTMGWYRQSPGKERELVATITRRGGTTYYADSVKGRFTISRDNAKNTVYLQMNSLKPEDTAVYYCAAKWYSTHRYDYWGQGTQVTVSS | high polyreactivity |
| QVQLVESGGGLVHARGSLRLSCAASGCTFVRNAMGWYRPAPGKERELGAAITSRGGSTYYADSVKGRFTISRDNAKNTVYLQMNSLKPEDTAVYYCAARFGVKRGQYDFWGQGTQVTVSS | high polyreactivity |
| QVQLVESGGGLVHEGRSLRLSCAASGSKYSYDAMGWYRQAPGTERELVPTISWRGRTYYADSVKGRFTISRDNAKNTVYLKMISLKPEDTAVYYCNTKSLYGRSRGYPYDYWGQGTQVTVSS | high polyreactivity |
| QVQLVESGGGLVHSGRSLRLSCAASGSISCHYAMGWYRTAHGKERDLLAAIDSSGGIKYYADSVKGRFTISRDNSKNTVYLQMNSLKPEDTAVYYCAAVFLLFGFEWSYDYWGQGTQVTVSS | low polyreactivity |
| QVQLVESGGGLVKAGCSLRLSCADSGFIFSSYAMGWYRQAPGIERELVAAITRSGGITYYADSLKGRFTISRDNAKITVYLQMNSLKPEDTAVYYCAARWRYYRGYSRQRPYEFDYWGQGTQVTVSA | high polyreactivity |
| QVQLVESGGGLVKAGGSLRISCAASGSIFTPYTMGWYRQAPGKERELVAAISSGDSTYYADSVKGRFTISRDNAKKTVYLQMNSLKPEDTAVYYCAADYRYDYDYWGQGTQVTVSS | low polyreactivity |
| QVQLVESGGGLVKAGGSLRLICAASGSTFGGNDKGWYRHAPGKERELVDAISSGTSTNYADSVKGRFTISRDNAMNTVYLQMNSLKPEDTAVYYCNAGFWYRRTYDYWGQGTQVTVSS | low polyreactivity |
| QVQLVESGGGLVKAGGSLRLSCAASGFIFNGYAMGWYRQAPGKESELVAAINSGGITHYADSVKGRFTISRDNAKNTVYLQMNSLKPEDTAVYYCAAVRTGYYRQYDYWGQGTQVTVSS | high polyreactivity |
